The values that follow come from publication PMC6199135, “Differing isoforms of the cobalamin binding photoreceptor AerR oppositely regulate photosystem expression” (eLife, 2018).

Broadly, the EC50 is the concentration that produces a half-maximal response. Read a high EC50 as lower potency in that assay.

The target of experiment [1] is CrtJ (Rhodobacter capsulatus) (UniProt P26167). The experiment is described as follows: MST; Monolith NT.115; RED-NHS-labeled CrtJ kept constant (200 or 500 nM), AerR varied from µM to nM; 20 mM Tris-HCl pH 8.0, 200 mM NaCl; AerR with bound hydroxyl-Cbl (OH-Cbl).
The target is the same in experiment [2]. The experiment is described as follows: MST; Monolith NT.115; RED-NHS-labeled CrtJ kept constant (200 or 500 nM), AerR varied from µM to nM; 20 mM Tris-HCl pH 8.0, 200 mM NaCl; SAerR with bound Adenosyl-Cbl (Ado-Cbl).
For a further experiment, the target named is T1, CrtJ (Rhodobacter capsulatus, UniProt P26167 1-469, labeled using RED-NHS protein labeling kit (Nanotemper)).
T1 construct: CrtJ, redox-responding transcription factor (aerobic repressor of photosystem genes) of Rhodobacter capsulatus; also called SUMO-CrtJ; PpsR (name in some other species); source: recombinant protein from plasmid pSUMO-CrtJ (PMID: 22715852)
T1 sequence (looked up): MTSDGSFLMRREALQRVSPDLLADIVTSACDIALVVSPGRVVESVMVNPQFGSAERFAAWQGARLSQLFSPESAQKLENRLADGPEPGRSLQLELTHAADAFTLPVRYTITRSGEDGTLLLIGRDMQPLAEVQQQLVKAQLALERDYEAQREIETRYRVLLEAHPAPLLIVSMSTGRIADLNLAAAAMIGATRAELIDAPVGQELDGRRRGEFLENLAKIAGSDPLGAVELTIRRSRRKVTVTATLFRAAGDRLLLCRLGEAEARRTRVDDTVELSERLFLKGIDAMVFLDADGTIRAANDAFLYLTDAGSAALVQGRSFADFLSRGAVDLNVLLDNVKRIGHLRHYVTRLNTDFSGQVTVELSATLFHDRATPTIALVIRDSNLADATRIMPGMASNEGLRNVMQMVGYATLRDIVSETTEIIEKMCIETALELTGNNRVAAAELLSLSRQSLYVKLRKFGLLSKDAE
The experiment is described as follows: MST; Monolith NT.115; RED-NHS-labeled CrtJ kept constant (200 or 500 nM), AerR varied from µM to nM; 20 mM Tris-HCl pH 8.0, 200 mM NaCl; AerR with bound hydroxyl-Cbl (OH-Cbl). The note with it: both partners purified.

On to “SAerR (short isoform of AerR) (natural protein)”, for which the 50% effective concentration (EC50) in experiment [1] and in experiment [2] was 2.1 µM in each case.

B1: LAerR (long isoform of AerR) (natural protein)
chain: MNGVAELQTVLVNRMVELATGPELGAMDLLFDEFRAAHVPVEEMATHYIPEAARQIGAAWDSDRIGFAQVTIAISRLQELLHALQTLVTADSVGCANGATVLLIVPPGEQHTLGALIVAMELRRRGVSVRIVFAPGLSDLSRLMATTRFDAALITVGSMDRVEICAKLVKTLSSLTKGRMRVAIGGAIVSQRAEALARTGADLVTNDLSLVISEFSLV
B1 yielded an EC50 with CrtJ of 7.8 ± 1.2 µM.
